# Reference: patent US20190323037, “REPLICATIVE TRANSPOSON SYSTEM” (HORIZON DISCOVERY LIMITED, published 2019)
# T1: Helraiser transposase (RepHel, Helitron) (Myotis lucifugus)
# T1 chain: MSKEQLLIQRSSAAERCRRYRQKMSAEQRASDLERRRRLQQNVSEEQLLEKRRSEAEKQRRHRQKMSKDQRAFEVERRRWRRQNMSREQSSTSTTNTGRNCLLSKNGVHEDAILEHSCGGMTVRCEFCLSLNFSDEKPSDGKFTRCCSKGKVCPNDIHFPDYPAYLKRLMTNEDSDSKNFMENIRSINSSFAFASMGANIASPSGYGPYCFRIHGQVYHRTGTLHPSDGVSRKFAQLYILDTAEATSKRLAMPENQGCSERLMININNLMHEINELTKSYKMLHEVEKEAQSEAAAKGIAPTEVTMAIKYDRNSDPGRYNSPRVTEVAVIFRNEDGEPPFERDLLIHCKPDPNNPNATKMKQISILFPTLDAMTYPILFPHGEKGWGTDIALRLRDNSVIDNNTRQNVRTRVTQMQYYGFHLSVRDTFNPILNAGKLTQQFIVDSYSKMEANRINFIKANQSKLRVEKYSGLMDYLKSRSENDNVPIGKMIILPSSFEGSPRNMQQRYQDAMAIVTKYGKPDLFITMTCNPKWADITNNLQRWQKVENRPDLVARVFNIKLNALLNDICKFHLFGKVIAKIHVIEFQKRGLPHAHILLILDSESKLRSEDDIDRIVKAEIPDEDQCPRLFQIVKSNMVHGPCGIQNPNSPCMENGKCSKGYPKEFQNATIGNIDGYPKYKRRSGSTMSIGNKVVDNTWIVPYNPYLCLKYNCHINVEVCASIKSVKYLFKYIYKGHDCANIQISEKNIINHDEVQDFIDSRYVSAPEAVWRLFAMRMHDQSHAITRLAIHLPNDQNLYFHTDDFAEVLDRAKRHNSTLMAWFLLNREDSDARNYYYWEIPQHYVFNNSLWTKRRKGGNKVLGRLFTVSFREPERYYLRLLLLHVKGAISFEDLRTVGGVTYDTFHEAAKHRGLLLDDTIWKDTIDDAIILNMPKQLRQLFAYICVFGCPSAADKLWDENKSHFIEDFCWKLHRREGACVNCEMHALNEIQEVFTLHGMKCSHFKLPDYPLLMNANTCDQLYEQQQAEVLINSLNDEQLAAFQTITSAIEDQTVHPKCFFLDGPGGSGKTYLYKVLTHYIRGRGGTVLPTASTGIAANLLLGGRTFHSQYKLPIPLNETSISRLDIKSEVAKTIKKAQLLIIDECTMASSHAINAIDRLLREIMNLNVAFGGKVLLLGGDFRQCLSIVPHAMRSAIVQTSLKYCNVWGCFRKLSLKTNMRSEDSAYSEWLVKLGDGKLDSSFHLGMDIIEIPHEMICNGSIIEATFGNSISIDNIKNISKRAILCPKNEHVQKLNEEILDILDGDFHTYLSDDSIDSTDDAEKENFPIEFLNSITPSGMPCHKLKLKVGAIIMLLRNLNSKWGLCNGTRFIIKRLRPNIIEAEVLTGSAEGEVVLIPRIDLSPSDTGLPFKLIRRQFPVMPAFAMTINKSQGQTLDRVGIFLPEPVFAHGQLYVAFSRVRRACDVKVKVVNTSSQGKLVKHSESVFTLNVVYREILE
# Tests used:
# [1] = molecular target: T1, Helraiser transposase (RepHel, Helitron); assay: EMSA; text says cleavage-assay oligonucleotides bound; details: tags: His tag (pFastBac HT-A), TEV-cleaved, insect cells, label: 6-FAM
# Experimental: (§1) Binding of the Helraiser transposase to various DNA oligonucleotides was measured by EMSA using 6% TBE gels (Invitrogen). Purified protein at 15 nM-150 nM was incubated for 30 min at room temperature in binding buffer (50 mM Tris pH 7.5, 100 mM NaCl, 10 mM MgCl₂, 0.5 mM ETDA, 1 mM TCEP) with 50 nM 6-FAM labeled oligonucleotides. After addition of DNA gel loading solution (Quality Biological, INC), samples were run on 6% TBE gels and visualized.
# [2] = molecular target: T1, Helraiser transposase (RepHel, Helitron); assay: EMSA; 10 mM MgCl2, 100 mM NaCl, pH 7.5, RT; 50 nM oligo; text says cleavage-assay oligonucleotides; details: tags: His tag (pFastBac HT-A), TEV-cleaved; insect cells; label: 6-FAM
# Experimental: as §1
binder,measurement,setting,value
"GGGATGGTCAATTTGCATGTTTCTCTTTTATTATATAGGATCATATGGTG (ssDNA, [NONE]) [Helraiser LTS substrate (-), bottom strand]",binding result,[1],binds
"TATATATATACTAGTGGCCCGGTGCACGAAATTCGTGCACATTGAAAGGG (ssDNA, [NONE]) [Helraiser RTS substrate (-), bottom strand]",binding result,[1],binds
"CCCTTTCAATGTGCACGAATTTCGTGCACCGGGCCACTAGTATATATATA (ssDNA) [Helraiser RTS substrate (+), top strand]",binding result,[1]; potential hairpin (19-nt palindrome),binds
"CACCATATGATCCTATATAATAAAAGAGAAACATGCAAATTGACCATCCC (ssDNA) [Helraiser LTS substrate (+), top strand]",binding result,[2],binds
